Legend:
Experiment in all cases: SPR; Fcγ receptors immobilised, trastuzumab glycan variants as analyte; Biacore T200; relative binding (%) normalised with trastuzumab starting material; n = 3; procedure in ref. 54
[1] = target: FcγRIIIa V158
[2] = target: FcγRIIIa F158 (UniProt P08637)
[3] = target: FcγRIIb/c (UniProt P31994)
[4] = target: FcγRIIa R131

Sequence of UniProt P31994 (P31994 43-217): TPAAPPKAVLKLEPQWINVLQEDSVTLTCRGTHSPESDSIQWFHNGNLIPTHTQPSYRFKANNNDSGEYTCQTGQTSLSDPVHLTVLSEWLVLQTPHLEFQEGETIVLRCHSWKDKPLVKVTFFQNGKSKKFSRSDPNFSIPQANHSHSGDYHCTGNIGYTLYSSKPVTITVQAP

relative binding (% of trastuzumab starting material) [1] | relative binding (% of trastuzumab starting material) [2] | relative binding (% of trastuzumab starting material) [3] | relative binding (% of trastuzumab starting material) [4] | Substance
121% | 150% | 162% | 130% | Trastuzumab α-2,6-sialylated variant G2S2F ST6 (antibody)
 | 62% |  |  | Trastuzumab α-2,3-sialylated variant G2S2F ST3 (antibody)
120% | 124% |  |  | Trastuzumab hyper-galactosylated variant G2F (antibody)

Reference: PMC6963987
